The supplement of paper PMC9112550, “Optimization of the antimicrobial peptide Bac7 by deep mutational scanning” (BMC Biology, 2022)

system: Escherichia coli TOP10; experiment: shrunken log2 fold change of peptide-encoding DNA abundance (4.5 h post-induction vs induction); higher = less antimicrobial activity (less host growth inhibition); details: time post-induction: 4.5 h; library: site-saturation at positions 5, 18, 19, 20
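Note: peptides expressed intracellularly from a pBAD plasmid library in pooled LB shake-flask culture, induced with 0.3% L-arabinose, DNA abundance read by NGS, three biological replicates, DESeq2 with apeglm shrinkage.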

Sequence | shrunken log2 fold change
RRIRNRPPRLPRPRPRPRQHPRP | -0.103
RRIRMRPPRLPRPRPRPMCVPRP | 1.45
RRIRARPPRLPRPRPRPIMIPRP | -0.261
RRIRARPPRLPRPRPRPAKHPRP | 0.558
RRIRKRPPRLPRPRPRPTQIPRP | 0.412
RRIRTRPPRLPRPRPRPDRFPRP | 0.0382
RRIRLRPPRLPRPRPRPPYKPRP | -0.292
RRIRRRPPRLPRPRPRPEIGPRP | 0.244
RRIRTRPPRLPRPRPRPAFMPRP | -0.0227
RRIRLRPPRLPRPRPRPNPCPRP | -0.398
RRIRARPPRLPRPRPRPMSVPRP | 0.121
RRIRKRPPRLPRPRPRPTPLPRP | 0.848
RRIRKRPPRLPRPRPRPMRCPRP | 1.16
RRIRQRPPRLPRPRPRPRQTPRP | 0.161
RRIRNRPPRLPRPRPRPHCYPRP | 0.0691
RRIRIRPPRLPRPRPRPDYNPRP | -0.998
RRIRERPPRLPRPRPRPGDWPRP | 0.212
RRIRSRPPRLPRPRPRPMGHPRP | -0.256
RRIRFRPPRLPRPRPRPVHMPRP | -0.0472
RRIRGRPPRLPRPRPRPDLNPRP | 0.843
RRIRERPPRLPRPRPRPAHDPRP | -0.181
RRIRARPPRLPRPRPRPNCNPRP | -0.116

Sequence | shrunken log2 fold change
RRIRIRPPRLPRPRPRPYPMPRP | -0.0519
RRIRLRPPRLPRPRPRPAVSPRP | -0.0934
RRIRHRPPRLPRPRPRPPNNPRP | -0.58
RRIRFRPPRLPRPRPRPMFDPRP | -0.155
RRIRVRPPRLPRPRPRPQLMPRP | -0.224
RRIRERPPRLPRPRPRPCWCPRP | -0.0114
RRIRIRPPRLPRPRPRPTPCPRP | 0.598
RRIRSRPPRLPRPRPRPEYEPRP | -0.0387
RRIRTRPPRLPRPRPRPRRGPRP | 0.604
RRIRERPPRLPRPRPRPVFAPRP | 0.181
RRIRERPPRLPRPRPRPHAFPRP | -0.0188
RRIRTRPPRLPRPRPRPWRNPRP | -0.253
RRIRCRPPRLPRPRPRPYDRPRP | -0.188
RRIRPRPPRLPRPRPRPHLWPRP | 0.181
RRIRTRPPRLPRPRPRPSDWPRP | 0.0388
RRIRWRPPRLPRPRPRPEYIPRP | -0.0519
RRIRQRPPRLPRPRPRPGPCPRP | -0.0469
RRIRARPPRLPRPRPRPTVRPRP | 0.302
RRIRRRPPRLPRPRPRPHPMPRP | 0.144
RRIRKRPPRLPRPRPRPGLPPRP | 0.348
RRIRQRPPRLPRPRPRPTFRPRP | -0.232
RRIRDRPPRLPRPRPRPYVQPRP | -0.13

Sequence | shrunken log2 fold change
RRIRQRPPRLPRPRPRPKAVPRP | -0.00151
RRIRLRPPRLPRPRPRPHCQPRP | -0.0416
RRIRIRPPRLPRPRPRPMFEPRP | -0.0768
RRIRTRPPRLPRPRPRPHVYPRP | -0.496
RRIRVRPPRLPRPRPRPCYDPRP | 0.0557
RRIRFRPPRLPRPRPRPCPGPRP | -0.151
RRIRNRPPRLPRPRPRPTPDPRP | 0.17
RRIRKRPPRLPRPRPRPPPKPRP | 1.2
RRIRQRPPRLPRPRPRPCKFPRP | -0.194
RRIRDRPPRLPRPRPRPGAEPRP | 1.08
RRIRPRPPRLPRPRPRPCFIPRP | -0.735
RRIRGRPPRLPRPRPRPFLVPRP | -0.0616
RRIRHRPPRLPRPRPRPPHSPRP | 0.0314
RRIRIRPPRLPRPRPRPLPLPRP | 0.0472
RRIRDRPPRLPRPRPRPIRNPRP | 0.011
RRIRFRPPRLPRPRPRPTIDPRP | 0.103
RRIRIRPPRLPRPRPRPSKAPRP | -0.176
RRIRERPPRLPRPRPRPLFMPRP | -0.222
RRIRARPPRLPRPRPRPKKFPRP | 0.138
RRIRCRPPRLPRPRPRPWHRPRP | 0.0363
RRIRYRPPRLPRPRPRPTKDPRP | -1.04
RRIRNRPPRLPRPRPRPSLSPRP | -0.205

Sequence | shrunken log2 fold change
RRIRDRPPRLPRPRPRPHYQPRP | 0.0231
RRIRARPPRLPRPRPRPQASPRP | 0.242
RRIRMRPPRLPRPRPRPCEGPRP | -0.00822
RRIRLRPPRLPRPRPRPDGCPRP | -0.0283
RRIRCRPPRLPRPRPRPVRKPRP | 0.0744
RRIRQRPPRLPRPRPRPKQEPRP | -0.0419
RRIRYRPPRLPRPRPRPVSEPRP | -0.00125
RRIRWRPPRLPRPRPRPQFVPRP | -0.1
RRIRHRPPRLPRPRPRPQISPRP | -0.0457
RRIRKRPPRLPRPRPRPFRKPRP | -0.304
RRIRSRPPRLPRPRPRPQANPRP | -0.0559
RRIRRRPPRLPRPRPRPTNAPRP | 0.158
RRIRKRPPRLPRPRPRPHNGPRP | 0.169
RRIRKRPPRLPRPRPRPPYKPRP | -0.142
RRIRMRPPRLPRPRPRPIKRPRP | 0.0532
RRIRNRPPRLPRPRPRPPRAPRP | 0.658
RRIRKRPPRLPRPRPRPYHSPRP | 2.07
RRIRFRPPRLPRPRPRPHMCPRP | -1.24
RRIRRRPPRLPRPRPRPPCYPRP | 0.473
RRIRIRPPRLPRPRPRPFCCPRP | -0.205
RRIRERPPRLPRPRPRPDSFPRP | 0.0952
RRIRGRPPRLPRPRPRPSEQPRP | 0.301

Sequence | shrunken log2 fold change
RRIRQRPPRLPRPRPRPCTTPRP | -0.104
RRIRKRPPRLPRPRPRPGPNPRP | 0.795
RRIRARPPRLPRPRPRPMKEPRP | -0.101
RRIRFRPPRLPRPRPRPNSMPRP | -1.01
RRIRDRPPRLPRPRPRPYRGPRP | -0.0122
RRIRNRPPRLPRPRPRPVSCPRP | -0.129
RRIRLRPPRLPRPRPRPHKLPRP | -0.1
RRIRLRPPRLPRPRPRPKGNPRP | -0.0951
RRIRMRPPRLPRPRPRPNNGPRP | 0.0562
RRIRTRPPRLPRPRPRPTNIPRP | -0.519
RRIRVRPPRLPRPRPRPMLKPRP | -0.293
RRIRERPPRLPRPRPRPIWCPRP | 0.000213
RRIRSRPPRLPRPRPRPLWCPRP | 0.148
RRIRQRPPRLPRPRPRPCVFPRP | -0.049
RRIRYRPPRLPRPRPRPHYVPRP | -0.208
RRIRFRPPRLPRPRPRPMVWPRP | 0.156
RRIRGRPPRLPRPRPRPVSMPRP | 0.401
RRIRPRPPRLPRPRPRPKPYPRP | -0.0782
RRIRTRPPRLPRPRPRPRTFPRP | 0.0284
RRIRSRPPRLPRPRPRPLMTPRP | 0.653
RRIRCRPPRLPRPRPRPRKPPRP | 0.218
